Paper PMC11352577

Experiments:
[1] = biological target: CD64 (FcγRI) on human primary monocytes and monocyte-derived macrophages (human (endogenous in primary monocytes)) (UniProt P12314)
[2] = biological target: human KIR3DL1 extracellular domains fused to mouse IgG2a Fc with Avi tag, biotinylated (human) (UniProt P43629); experiment: SPR; Biacore T200; biotinylated receptors immobilised on Series S CAP chip; IOS-1002 as analyte, 5 concentrations 6 to 0.375 uM; HBS-EP, 25 °C; 1:1 fit
[3] = biological target: human KIR3DL1 extracellular domains fused to mouse IgG2a Fc with Avi tag, biotinylated (human) (UniProt P43629); experiment: SPR; Biacore T200; biotinylated KIR3DL1 immobilised; IOS-1002 as analyte; HBS-EP, 25 °C; steady-state fits, averaged

Sequence of UniProt P43629 (P43629 22-340): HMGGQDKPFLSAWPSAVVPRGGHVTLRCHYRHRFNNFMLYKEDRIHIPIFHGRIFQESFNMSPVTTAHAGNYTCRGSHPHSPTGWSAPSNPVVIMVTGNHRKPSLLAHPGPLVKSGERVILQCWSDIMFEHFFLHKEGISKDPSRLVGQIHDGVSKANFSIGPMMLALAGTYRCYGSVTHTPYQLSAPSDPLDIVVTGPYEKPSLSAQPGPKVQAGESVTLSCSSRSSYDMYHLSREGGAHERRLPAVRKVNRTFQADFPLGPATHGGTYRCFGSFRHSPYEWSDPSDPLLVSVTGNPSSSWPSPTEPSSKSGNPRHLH
Sequence of UniProt P12314 (P12314 16-374): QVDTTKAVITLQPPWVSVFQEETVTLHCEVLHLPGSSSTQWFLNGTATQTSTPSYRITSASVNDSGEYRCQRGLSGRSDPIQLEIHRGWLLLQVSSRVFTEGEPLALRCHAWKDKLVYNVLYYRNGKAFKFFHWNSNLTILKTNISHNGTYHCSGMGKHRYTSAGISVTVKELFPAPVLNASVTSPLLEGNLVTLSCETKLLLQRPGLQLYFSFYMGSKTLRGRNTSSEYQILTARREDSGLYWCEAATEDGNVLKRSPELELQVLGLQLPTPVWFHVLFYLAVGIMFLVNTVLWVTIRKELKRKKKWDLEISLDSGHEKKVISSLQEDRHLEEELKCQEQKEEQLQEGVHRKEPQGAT

macrophage phagocytosis of H460 cells, dose response (EC50) [1]: 0.00333 µM | Kd [2]: 3.28 µM | Kd [3]: 7.48 µM
Substance: IOS-1002 (HLA-B57^(A46E/V97R).B2m-IgG4_Fc) (from UniProt P61769 21-119) (Fc fusion)
